Measured values as given in paper PMC8551160, “Structure of PDE3A–SLFN12 complex and structure-based design for a potent apoptosis inducer of tumor cells” (Nature Communications, 2021).

Biological target: the molecule itself
Experiment: cryo-EM structure; PDE3A-SLFN12 (K213R) complex purified from nauclefine-treated HeLa cells; single-particle, C2 symmetry, 3.2 Å

B1: phosphodiesterase 3A (PDE3A), endogenous (enzyme, human (endogenous in HeLa), UniProt Q14432 1-1141, looked up)
chain: MAVPGDAARVRDKPVHSGVSQAPTAGRDCHHRADPASPRDSGCRGCWGDLVLQPLRSSRKLSSALCAGSLSFLLALLVRLVRGEVGCDLEQCKEAAAAEEEEAAPGAEGGVFPGPRGGAPGGGARLSPWLQPSALLFSLLCAFFWMGLYLLRAGVRLPLAVALLAACCGGEALVQIGLGVGEDHLLSLPAAGVVLSCLAAATWLVLRLRLGVLMIALTSAVRTVSLISLERFKVAWRPYLAYLAGVLGILLARYVEQILPQSAEAAPREHLGSQLIAGTKEDIPVFKRRRRSSSVVSAEMSGCSSKSHRRTSLPCIPREQLMGHSEWDHKRGPRGSQSSGTSITVDIAVMGEAHGLITDLLADPSLPPNVCTSLRAVSNLLSTQLTFQAIHKPRVNPVTSLSENYTCSDSEESSEKDKLAIPKRLRRSLPPGLLRRVSSTWTTTTSATGLPTLEPAPVRRDRSTSIKLQEAPSSSPDSWNNPVMMTLTKSRSFTSSYAISAANHVKAKKQSRPGALAKISPLSSPCSSPLQGTPASSLVSKISAVQFPESADTTAKQSLGSHRALTYTQSAPDLSPQILTPPVICSSCGRPYSQGNPADEPLERSGVATRTPSRTDDTAQVTSDYETNNNSDSSDIVQNEDETECLREPLRKASACSTYAPETMMFLDKPILAPEPLVMDNLDSIMEQLNTWNFPIFDLVENIGRKCGRILSQVSYRLFEDMGLFEAFKIPIREFMNYFHALEIGYRDIPYHNRIHATDVLHAVWYLTTQPIPGLSTVINDHGSTSDSDSDSGFTHGHMGYVFSKTYNVTDDKYGCLSGNIPALELMALYVAAAMHDYDHPGRTNAFLVATSAPQAVLYNDRSVLENHHAAAAWNLFMSRPEYNFLINLDHVEFKHFRFLVIEAILATDLKKHFDFVAKFNGKVNDDVGIDWTNENDRLLVCQMCIKLADINGPAKCKELHLQWTDGIVNEFYEQGDEEASLGLPISPFMDRSAPQLANLQESFISHIVGPLCNSYDSAGLMPGKWVEDSDESGDTDDPEEEEEEAPAPNEEETCENNESPKKKTFKRRKIYCQITQHLLQNHKMWKKVIEEEQRLAGIENQSLDQTPQSHSSEQIQAIKEEEEEKGKPRGEEIPTQKPDQ
notes: PDE3A, human, endogenous in HeLa cells; appeared as its full length in the purification; only the catalytic domain K669-Q1102 is resolved in the cryo-EM maps; the purified band is called full length; It is a homodimer in the complex structures; source: endogenous, HeLa; in lysate (co-IP); co-purified with tagged SLFN12 by Flag-HA tandem pull-down (cryo-EM)
  stoichiometry N: 2
